The values below come from US20260224620A1 (published 2026).

In general, Kd refers to the equilibrium constant for the complex coming apart.

For this experiment, the target named is CD47 WT (YSD CD47) (UniProt Q08722 19-135). The experiment in a line: flow cytometry, yeast surface display. (Flow cytometry measures light scatter and fluorescence of single cells or particles in a stream.)

B1: B6H12 (antibody, V domains shown)
VH: EVQLVESGGDLVKPGGSLKLSCAASGFTFSGYGMSWVRQTPDKRLEWVATITSGGTYTYYPDSVKGRFTISRDNAKNTLYLQIDSLKSEDTAIYFCARSLAGNAMDYWGQGTSVTVSS
VL: DIVMTQSPATLSVTPGDRVSLSCRASQTISDYLHWYQQKSHESPRLLIKFASQSISGIPSRFSGSGSGSDFTLSINSVEPEDVGVYYCQNGHGFPRTFGGGTKLEIK
B1: the Kd is around 0.33 nM.
